Laboratory results published in the supplement of paper PMC10567573.

B1: NECAB1 (parent)
chain: FSPNSPQFNVSGPGLLEEDNQWMT

Variants of: B1
Assay: protein stability index of a GFP-peptide fusion (GPS, HEK-293T) (PSI 1-6); higher = more stable
Conditions: c terminus: a fixed tail appended
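Note: lentivirally expressed fusions sorted by FACS into six bins by GFP to DsRed ratio, PSI derived from sequencing read proportions per bin multiplied by bin number.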

Row | Variant | protein stability index
1 | D19C | 2.72
2 | D19M | 2.57
3 | D19N | 2.57
4 | D19W | 2.02
5 | D19T | 2.1
6 | D19Y | 2.44
7 | D19G | 2.33
8 | D19I | 2.55
9 | D19S | 2.33
10 | D19Q | 2.5
11 | D19R | 1.94
12 | D19F | 2.12
13 | D19E | 2.78
14 | D19K | 2.18
15 | D19H | 2.79
16 | D19P | 2.03
17 | D19L | 2.3
18 | D19V | 2.1
19 | D19A | 2.11
20 | P13H | 2.62
21 | P13Q | 3.12
22 | P13Y | 2.75
23 | P13W | 1.7
24 | P13F | 2.29

Row | Variant | protein stability index
25 | P13C | 2.49
26 | P13N | 3.5
27 | P13M | 2.65
28 | P13T | 3.32
29 | P13D | 3.46
30 | P13V | 2.75
31 | P13S | 3.02
32 | P13A | 3.15
33 | P13I | 3.27
34 | P13G | 2.89
35 | P13K | 2.71
36 | P13L | 2.39
37 | P13R | 2.79
38 | P13E | 3.58
39 | L16F | 2.42
40 | L16V | 3.18
41 | L16T | 3.53
42 | L16E | 4
43 | L16Q | 3.54
44 | L16H | 3.98
45 | L16A | 3.29
46 | L16P | 3.52
47 | L16S | 3.23
48 | L16I | 2.91

Row | Variant | protein stability index
49 | L16K | 2.94
50 | L16M | 2.66
51 | L16N | 2.97
52 | L16G | 2.73
53 | L16C | 3.03
54 | L16D | 3.94
55 | L16W | 2.25
56 | L16R | 3.12
57 | L16Y | 2.73
58 | S11W | 3.29
59 | S11T | 2.79
60 | S11Y | 1.95
61 | S11V | 2.51
62 | G14S | 3.04
63 | G14N | 2.89
64 | G14D | 3.73
65 | G14Q | 2.74
66 | G14K | 2.3
67 | G14M | 2.35
68 | G14F | 2.35
69 | G14I | 2.29
70 | G14T | 2.52
71 | G14V | 2.89
72 | G14Y | 2.22

Row | Variant | protein stability index
73 | G14A | 3.44
74 | G14C | 3.32
75 | G14W | 1.96
76 | G14L | 2.62
77 | G14E | 3.58
78 | G14R | 2.63
79 | G14H | 2.47
80 | G14P | 3.17
81 | L15K | 2.97
82 | L15T | 3.25
83 | L15E | 3.46
84 | L15R | 2.51
85 | L15D | 3.7
86 | L15V | 3.23
87 | L15N | 3.27
88 | L15C | 3.04
89 | L15A | 3.26
90 | L15F | 2.91
91 | L15H | 3.19
92 | L15G | 2.91
93 | L15Y | 3.05
94 | L15S | 3.3
95 | L15W | 2.68
96 | L15I | 2.98

Row | Variant | protein stability index
97 | L15P | 2.98
98 | L15Q | 3.06
99 | L15M | 3.22
100 | N20C | 2.63
101 | N20G | 2.79
102 | N20K | 2.54
103 | N20F | 2.71
104 | N20D | 3.86
105 | N20L | 2.27
106 | N20E | 3.73
107 | N20H | 2.62
108 | N20M | 2.54
109 | N20A | 3.29
110 | N20I | 2.24
111 | E17T | 2.36
112 | E17Q | 3.13
113 | E17S | 2.98
114 | E17G | 2.49
115 | E17H | 2.72
116 | E17F | 1.69
117 | E17I | 2.53
118 | E17D | 2.74
119 | E17V | 2.33
120 | E17A | 2.4

Row | Variant | protein stability index
121 | E17C | 2.04
122 | E17K | 1.97
123 | E17N | 2.33
124 | E17Y | 2.46
125 | E17L | 2.29
126 | E17W | 2.82
127 | E17R | 2.86
128 | E17P | 2.58
129 | E17M | 2.54
130 | E18R | 2.14
131 | E18M | 2.65
132 | E18Q | 1.97
133 | E18V | 2.31
134 | E18H | 2.39
135 | E18C | 1.89
136 | E18S | 1.88
137 | E18Y | 1.82
138 | E18I | 2.4
139 | E18K | 3.2
140 | E18P | 1.84
141 | E18W | 2.14
142 | E18N | 2.83
143 | E18A | 2.82
144 | E18L | 2.03

Row | Variant | protein stability index
145 | E18F | 2.61
146 | E18G | 2.02
147 | E18T | 2.23
148 | E18D | 2.91
149 | G12T | 3.22
150 | G12P | 2.86
151 | G12D | 3.13
152 | G12K | 2.85
153 | G12I | 2.42
154 | G12S | 3.13
155 | G12R | 2.7
156 | G12E | 3.12
157 | G12M | 3.18
158 | G12N | 2.77
159 | G12F | 2.21
160 | G12C | 2.04
161 | G12Y | 2.14
162 | G12V | 2.86
163 | G12Q | 3.04
164 | G12L | 2.47
165 | G12W | 1.74
166 | G12H | 2.62
167 | G12A | 2.85
